Measured values: US20070100561A1 (published 2007)

Molecular target: T1, DPP-IV as immobilized on the CM5 surface plasmon resonance sensor (Biacore) (human, UniProt P27487 31-766)
T1 construct: Same recombinant sDPP-IV polypeptide as m1; Amine-coupled, about 10 000 RU; in one flow cell cross-linked with carbodiimide/N-hydroxysuccinimide; also called sDPP-IV
Experiment: SPR (Biacore), DPP-IV immobilized on CM5 sensor
Protocol: The organic adlayer on this sensor type consists of carboxymethylated dextran (MW≈100 kDA). […] The surfaces of two flow cells were modified with protein. […] Hepes buffer (0.01 M Hepes, pH 7.4, 0.15 M NaCl, 3 mM EDTA, 0.005% polysorbate 20 (v/v)) was used as the running buffer. […] The final inhibitor solution contained less than 0.1% DMSO. Binding experiments were carried out by contacting the immobilized protein surfaces with inhibitor solutions of varying concentrations at a flow rate of 10 μl/min or 30 μl/min. After each contact with inhibitor, the protein surfaces were regenerated by extensively washing with running buffer.

T1 sequence (P27487 31-766 limits assumed): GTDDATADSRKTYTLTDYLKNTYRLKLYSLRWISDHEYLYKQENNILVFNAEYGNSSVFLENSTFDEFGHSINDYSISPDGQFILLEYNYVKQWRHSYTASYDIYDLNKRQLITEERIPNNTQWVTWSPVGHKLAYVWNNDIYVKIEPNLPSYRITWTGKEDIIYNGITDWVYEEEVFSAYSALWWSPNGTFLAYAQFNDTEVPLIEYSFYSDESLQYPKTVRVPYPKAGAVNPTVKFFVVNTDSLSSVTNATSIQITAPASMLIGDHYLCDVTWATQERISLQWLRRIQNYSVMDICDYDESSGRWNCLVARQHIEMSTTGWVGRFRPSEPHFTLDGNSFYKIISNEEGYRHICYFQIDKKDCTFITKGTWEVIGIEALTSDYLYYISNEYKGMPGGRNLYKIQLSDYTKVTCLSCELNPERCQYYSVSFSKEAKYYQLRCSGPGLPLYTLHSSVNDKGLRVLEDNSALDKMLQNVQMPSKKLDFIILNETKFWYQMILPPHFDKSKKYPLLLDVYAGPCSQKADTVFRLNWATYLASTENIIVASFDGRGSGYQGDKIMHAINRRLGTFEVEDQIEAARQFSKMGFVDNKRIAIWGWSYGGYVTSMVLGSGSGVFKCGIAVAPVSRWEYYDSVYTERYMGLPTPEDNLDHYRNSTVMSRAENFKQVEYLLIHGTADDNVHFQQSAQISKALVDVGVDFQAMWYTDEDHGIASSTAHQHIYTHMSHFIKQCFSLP

B1: adenosine deaminase (ADA; Sigma Type IV, from calf intestinal mucosa) (enzyme, bovine, UniProt P56658 2-357, looked up)
chain: AQTPAFNKPKVELHVHLDGAIKPETILYYGRKRGIALPADTPEELQNIIGMDKPLSLPEFLAKFDYYMPAIAGCREAVKRIAYEFVEMKAKDGVVYVEVRYSPHLLANSKVEPIPWNQAEGDLTPDEVVSLVNQGLQEGERDFGVKVRSILCCMRHQPSWSSEVVELCKKYREQTVVAIDLAGDETIEGSSLFPGHVKAYAEAVKSGVHRTVHAGEVGSANVVKEAVDTLKTERLGHGYHTLEDATLYNRLRQENMHFEVCPWSSYLTGAWKPDTEHPVVRFKNDQVNYSLNTDDPLIFKSTLDTDYQMTKNEMGFTEEEFKRLNINAAKSSFLPEDEKKELLDLLYKAYGMPSPA
notes: Bought protein purified from tissue; also called ADA from bovine
  Kd: 3.15 nM
  koff: 8.75e-05 s⁻¹
  kon: 29800 M⁻¹ s⁻¹
